Drawing on US20070219354A1, this text covers Aβ production in HEK293T cells (IP/Western, densitometry) (times the level of wild type APP695) for one substance.

Some results are limits rather than exact numbers.

This test has as its target APP695-derived polypeptide (SEQ. ID. NO.:28) having the modified sequence NLDV (SEQ. ID. NO.:7) (Homo sapiens (Human)) (UniProt P05067). Nature of the test: cell-based or functional assay.

Take “β-secretase of the HEK293T cells used in Example 4 (from UniProt P56817 46-501) (enzyme)”: the Aβ production in HEK293T cells (IP/Western, densitometry) (times the level of wild type APP695) is > 3.
